Source: article PMC10991452, “Bioeconomic production of high-quality chitobiose from chitin food wastes using an in-house chitinase from Vibrio campbellii” (Bioresources and Bioprocessing, 2022)

Substrate: CC(=O)N[C@H]1[C@H](Oc2ccc([N+](=O)[O-])cc2)O[C@H](CO)[C@@H](O[C@@H]2O[C@H](CO)[C@@H](O)[C@H](O)[C@H]2NC(C)=O)[C@@H]1O
Test: purified protein
Assay type: biochemical, Vibrio harveyi
Conditions: 0.1 M sodium acetate pH 5.5, 30 °C, 10 min, 0-500 µM substrate

B1: VhChiA (Vibrio harveyi) (protein)
chain: APTAPSIDMYGSNNLQFSKIELAMETTSGYNDMVKYHELAKIKVKFNQWSGTSGDTYNVYFDGVKVATGAITGSQTTASFEYGQGGLYQMEIEACDATGCSKSAPVEITIADTDGSHLKPLTMNVDPNNKSYNTDPSIVMGTYFVEWGIYGRDYTVDNMPVDNLTHILYGFIPICGPNESVKSVGGNSFNALQTACRGVNDYEVVIHDPWAAYQKSFPQAGHEYSTPIKGNYAMLMALKQRNPDLKIIPSIGGWTLSDPFYDFVDKKNRDTFVASVKKFLKTWKFYDGVDIDWEFPGGGGAAADKGDPVNDGPAYIALMRELRVMLDELEAETGRTYELTSAIGVGYDKIEDVDYADAVQYMDYIFAMTYDFYGGWNNVPGHQTALYCGSFMRPGQCDGGGVDENGEPYKGPAYTADNGIQLLLAQGVPANKLVLGTAMYGRGWEGVTPDTLTDPNDPMTGTATGKLKGSTAQGVWEDGVIDYKGIKSFMLGANNTGINGFEYGYDAQAEAPWVWNRSTGELITFDDHRSVLAKGNYAKSLGLAGLFSWEIDADNGDILNAMHEGMAGGVVTPPNR
  Km: 216 µM
